{
  "source": "paper PMC5925078",
  "key": {"[1]": {"target": "TNFR2 variant in which the intracellular binding site for TRAF2 has been substituted by YFP, P20333", "assay": "cellular binding study with GpL (luciferase) fusion protein; competition; HEK293 cells transiently expressing TNFR1 or TNFR2 (YFP deletion mutants); preincubation with purified sTNF or PGRN at 37°C; 10-20 ng/ml GpL-TNF; EV-transfected cells as non-specific binding"}, "[2]": {"target": "cytosolic deletion mutant of TNFR1 in which the death domain has been replaced by YFP, P19438", "assay": "cellular binding study with GpL (luciferase) fusion protein; competition; HEK293 cells transiently expressing TNFR1 or TNFR2 (YFP deletion mutants); preincubation with purified sTNF or PGRN at 37°C; 10-20 ng/ml GpL-TNF; EV-transfected cells as non-specific binding"}},
  "data": [
    {"binder": "GpL-Flag-TNC-TNF (ligand) ACGCAAAPDIKDLLSRLEELEGLVSSLREQSDKPVAHVVANPQAEGQLQWLNRRANALLANGVELRDNQLVVPSEGLYLIYSQVLFKGQGCPSTHVLLTHTISRIAVSYQTKVNLLSAIKSPCQRETPEGAEAKPWYEPIYLGGVFQLEKGDRLSAEINRPDYLDFAESGQVYFGIIAL", "values": [
      {"measurement": "specific binding of 20 ng/ml GpL-TNF, fold over the unspecific background (the pair that is blocked)", "setting": "[1]", "result": "> 2400", "unit": "fold"},
      {"measurement": "specific binding of 20 ng/ml GpL-TNF, fold over the unspecific background (the pair that is blocked)", "setting": "[2]", "result": "> 800", "unit": "fold"}
    ]}
  ]
}
